How the values were obtained:
[1] = molecular target: human 4-1BB (CD137) on Jurkat-hu4-1BB-NFκB-luc2 reporter cells (human) (UniProt Q07011); experiment: cell-based or functional assay; parameters: AUC of NFκB-luciferase activation curve, no FAP+ cells / AUC of NFκB-luciferase activation curve, with WM-266-4 cells: unit not given beside the values
[2] = molecular target: human 4-1BB (CD137) on Jurkat-hu4-1BB-NFκB-luc2 reporter cells (human) (UniProt Q07011); experiment: cell-based or functional assay; parameters: AUC of NFκB-luciferase activation curve, no CEA+ cells / AUC of NFκB-luciferase activation curve, with CHO-k1-cynoCEACAM5 clone 8: unit not given beside the values
[3] = molecular target: human CEACAM5 (CEA) on cells (human) (UniProt P06731); experiment: flow cytometry on MKN45 cells; parameters: unit not given beside the values
Chain of human CEACAM5 (CEA) on cells (human) (P06731 35-685 E398K limits assumed): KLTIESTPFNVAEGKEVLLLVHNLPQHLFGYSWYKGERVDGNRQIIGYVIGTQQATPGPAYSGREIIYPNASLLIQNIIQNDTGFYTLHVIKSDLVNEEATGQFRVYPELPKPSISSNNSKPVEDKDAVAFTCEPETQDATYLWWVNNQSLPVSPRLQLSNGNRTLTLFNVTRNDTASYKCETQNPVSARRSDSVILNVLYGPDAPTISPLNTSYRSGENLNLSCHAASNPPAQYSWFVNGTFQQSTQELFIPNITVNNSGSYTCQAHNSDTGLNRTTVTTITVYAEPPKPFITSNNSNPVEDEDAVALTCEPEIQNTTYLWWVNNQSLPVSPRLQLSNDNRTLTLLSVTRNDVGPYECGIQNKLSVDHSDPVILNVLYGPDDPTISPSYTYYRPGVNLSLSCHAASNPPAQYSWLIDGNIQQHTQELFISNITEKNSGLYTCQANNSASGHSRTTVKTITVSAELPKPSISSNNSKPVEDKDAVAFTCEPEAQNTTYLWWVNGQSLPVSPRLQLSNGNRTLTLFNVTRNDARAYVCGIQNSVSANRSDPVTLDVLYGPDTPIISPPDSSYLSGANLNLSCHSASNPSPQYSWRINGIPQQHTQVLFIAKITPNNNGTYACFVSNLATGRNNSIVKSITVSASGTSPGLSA

[4] = molecular target: cynomolgus monkey CEACAM5 on CHO-k1-cynoCEACAM5 clone 8 cells (cynomolgus monkey); experiment: flow cytometry on CHO-k1-cynoCEACAM5 clone 8; parameters: unit not given beside the values
[5] = molecular target: human FAP on NIH/3T3-huFAP clone 19 cells (human) (UniProt Q12884); experiment: flow cytometry on NIH/3T3-huFAP clone 19 cells
[6] = molecular target: human CEACAM5 (CEA) on cells (human) (UniProt P06731); experiment: flow cytometry on CHO-k1-humanCEACAM5 clone 11
[7] = molecular target: human CEACAM5 (CEA) on cells (human) (UniProt P06731); experiment: flow cytometry on CHO-k1-humanCEACAM5 clone 12
[8] = molecular target: human CEACAM5 (CEA) on cells (human) (UniProt P06731); experiment: flow cytometry on CHO-k1-humanCEACAM5 clone 13

- AUC of NFκB-luciferase activation curve, no FAP+ cells [1]: 286
- AUC of NFκB-luciferase activation curve, with NIH/3T3-huFAP clone 19 cells [1]: 521
- AUC of NFκB-luciferase activation curve, with WM-266-4 cells [1]: 384
- AUC of NFκB-luciferase activation curve, no CEA+ cells [2]: 47
- AUC of NFκB-luciferase activation curve, with CHO-k1-cynoCEACAM5 clone 8 [2]: 77
- AUC of NFκB-luciferase activation curve, with CHO-k1-humanCEACAM5 clone 11 [2]: 264
- AUC of NFκB-luciferase activation curve, with CHO-k1-humanCEACAM5 clone 12 [2]: 313
- AUC [3]: 420
- AUC [4]: 219
- AUC [5]: 362
- EC50 [5]: 2.29 nM
- AUC [6]: 746
- AUC [7]: 1190
- AUC [8]: 1870
Substance: Untargeted (DP47) huIgG1 P329GLALA (antibody)

Reference: patent publication US20210253724A1
